From article PMC3719020

What was measured:
[1] = target: 60S-nascent chain-tRNA complex (β-VHP) (not stated | rabbit (endogenous in reticulocyte lysate)) (UniProt P60468)
[2] = target: β-VHP ribosome-nascent chain complexes (RNCs) (not stated | rabbit (endogenous in reticulocyte lysate)) (UniProt P60468)
[3] = target: Pelota (UniProt Q9BRX2); experiment: pull-down; 800 μl RRL incubated with 200 μl of Pelota resin (Pelota immobilized via CnBr); unconjugated quenched CnBr resin as control; depleted lysate blotted for Hbs1
Chain of UniProt Q9BRX2 (Q9BRX2 whole entry): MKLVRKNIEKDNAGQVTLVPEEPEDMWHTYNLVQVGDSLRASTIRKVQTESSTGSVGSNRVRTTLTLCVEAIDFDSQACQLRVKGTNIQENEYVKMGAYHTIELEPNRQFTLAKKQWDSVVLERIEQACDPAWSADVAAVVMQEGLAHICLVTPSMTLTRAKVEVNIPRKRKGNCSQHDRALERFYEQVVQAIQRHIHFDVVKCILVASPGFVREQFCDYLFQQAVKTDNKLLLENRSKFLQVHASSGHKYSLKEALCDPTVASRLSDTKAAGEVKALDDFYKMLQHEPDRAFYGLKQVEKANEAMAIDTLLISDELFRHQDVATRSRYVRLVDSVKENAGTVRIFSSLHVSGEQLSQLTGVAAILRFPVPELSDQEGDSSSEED

Row | nascent chain ubiquitination of sucrose gradient fractions incubated with E1, E2, ubiquitin and ATP; 60S-nascent chain complexes against 80S RNCs [1] | inhibition of β-VHP nascent chain ubiquitination by the GTPase mutant Hbs1 H348A (Hbs1-DN) added to the translation reaction [2] | inhibition of β-VHP nascent chain ubiquitination by the GTPase mutant Hbs1 V269G added to the translation reaction [2] | percent of Hbs1 depleted from the lysate by the Pelota resin [3] | Substance
1 | 10 fold | 90% | 60% |  | Listerin (enzyme)
2 |  |  |  | 80 to 90% | Hbs1 (enzyme)
